Legend:
[1] = target: SARS-CoV-2 spike protein (Hexapro S) (SARS-CoV-2)
[2] = target: SARS-CoV-2 spike protein (Hexapro S) (SARS-CoV-2); assay: dynamic light scattering
[3] = target: SARS-CoV-2 spike protein (Hexapro S) (SARS-CoV-2); assay: other fluorescence titration

Which EC50, plaque reduction assay, SARS-CoV-2 Munich isolate in Vero E6 cells [1] does the source give for “Burkholderia oklahomensis agglutinin (BOA) (natural protein)” here?
The EC50, plaque reduction assay, SARS-CoV-2 Munich isolate in Vero E6 cells was 9 nM.

What about the lowest lectin concentration with a significant increase in hydrodynamic radius [2] of the same substance?
Its lowest lectin concentration with a significant increase in hydrodynamic radius is 60 nM.

“Oscillatoria agardhii agglutinin (OAA) (natural protein)” was tested. Which lowest lectin concentration with a significant increase in hydrodynamic radius [2] did it give?
The lowest lectin concentration with a significant increase in hydrodynamic radius was 125 nM.

With “SeTau-405 fluorescently labeled BOA (natural protein)” as the substance, how does the half-saturation point [3] read?
The half-saturation point was 30 to 60 nM.

— article PMC10515186
